Experimental findings from article doi:10.1101/2021.05.13.443999 are described below.

In general, IC50 refers to the point on the concentration scale where inhibition reaches its midpoint. Higher therefore signals weaker potency.

This test concerns the target p47^phox (human (endogenous in HEK-293 and in human midbrain)) (UniProt P14598). Description: proximity ligation.
Chain of UniProt P14598 (P14598 whole entry): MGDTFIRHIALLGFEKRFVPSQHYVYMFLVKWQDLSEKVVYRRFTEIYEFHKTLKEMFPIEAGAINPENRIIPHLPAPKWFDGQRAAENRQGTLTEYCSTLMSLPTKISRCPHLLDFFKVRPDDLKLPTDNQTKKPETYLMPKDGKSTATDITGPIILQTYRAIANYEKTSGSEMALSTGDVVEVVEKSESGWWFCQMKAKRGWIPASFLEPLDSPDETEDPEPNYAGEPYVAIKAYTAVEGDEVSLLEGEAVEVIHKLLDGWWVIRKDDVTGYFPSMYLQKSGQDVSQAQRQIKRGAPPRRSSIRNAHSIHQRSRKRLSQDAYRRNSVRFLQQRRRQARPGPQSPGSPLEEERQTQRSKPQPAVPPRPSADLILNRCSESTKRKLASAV

Substance “NOX2 docking sequence (Nox2ds)-tat (peptide)” showed an IC50 of 700 nM.
